From article PMC9652281, “Design and directed evolution of noncanonical β-stereoselective metalloglycosidases” (Nature Communications, 2022) come the findings set out here.

In data set [1] the test system is T1, O=C(Cc1cccs1)N[C@@H]1C(=O)N2C(C(=O)O)=C(/C=C/c3ccc([N+](=O)[O-])cc3[N+](=O)[O-])CS[C@H]12.
T1 construct: mature OmpF; His-tag and thrombin site deleted; beta-barrel trimer
The experiment in a line: purified protein. It is filed as biochemical, Escherichia coli. The note with it: 50 mM Tris-HCl pH 8, room temperature.

Data set [2] concerns the molecule itself. The data set is described as follows: SDS-PAGE of the refolded protein; unfolded OmpF (20 mg/mL) refolded with 1% n-dodecyl-β-D-glucopyranoside and 1% n-dodecyl-β-D-maltopyranoside at 37 °C for 1-2 days; folding and oligomerization determined by 15% SDS-PAGE.
The mark [3] stands for this setting: OmpF2, 1.2 equiv. ZnCl2, 10 µM protein.
Where [4] appears, read: OmpF1Y, 1.2 equiv. ZnCl2, 10 µM protein.
[5] abbreviates: OmpF1, 1.2 equiv. ZnCl2, 10 µM protein.

Consider “OmpF (outer membrane protein F; OmpF1, OmpF1Y, OmpF2 and evolved variants) (Escherichia coli K-12; L105H/R154H/Y124H)”, for which, in data set [1] (setting [3]), the Km is 1700 ± 600 µM and the kcat is 0.025 ± 0.005 s⁻¹.
Turning to “OmpF (outer membrane protein F; OmpF1, OmpF1Y, OmpF2 and evolved variants) (Escherichia coli K-12; R104H/R154H)”, in data set [1] (setting [4]), the Michaelis-Menten constant (Km) was found to be 2000 ± 1000 µM and the kcat stood at 0.02 ± 0.01 s⁻¹.
With “OmpF (outer membrane protein F; OmpF1, OmpF1Y, OmpF2 and evolved variants) (Escherichia coli K-12; R104H/R154H/Y124H)”, in data set [1] (setting [5]), the Michaelis-Menten constant (Km) worked out at 1400 ± 600 µM and the kcat worked out at 0.017 ± 0.004 s⁻¹.

B1: OmpF1 (OmpF R82H/Y102H/R132H) (natural protein, UniProt P02931 23-362, looked up)
chain: AEIYNKDGNKVDLYGKAVGLHYFSKGNGENSYGGNGDMTYARLGFKGETQINSDLTGYGQWEYNFQGNNSEGADAQTGNKTHLAFAGLKYADVGSFDYGRNHGVVYDALGYTDMLPEFGGDTAYSDDFFVGHVGGVATYRNSNFFGLVDGLNFAVQYLGKNERDTARRSNGDGVGGSISYEYEGFGIVGAYGAADRTNLQEAQPLGNGKKAEQWATGLKYDANNIYLAANYGETRNATPITNKFTNTSGFANKTQDVLLVAQYQFDFGLRPSIAYTKSKAKDVEGIGDVDLVNYFEVGATYYFNKNMSTYVDYIINQIDSDNKLGVGSDDTVAVGIVYQF
notes: outer membrane protein F (OmpF), UniProt P02931, expressed without the native 22-residue signal peptide; His-tag and thrombin site were deleted from the plasmid; Crystallised with 1.2 equiv. of Zn ion per protomer; also called R132H/Y102H/R82H; source: E. coli BL21(DE3)
In the case of B1, the “stoichiometry N” value in data set [2] stood at 3.

B2: OmpF2 (OmpF L83H/Y102H/R132H) (natural protein, UniProt P02931 23-362, looked up)
chain: AEIYNKDGNKVDLYGKAVGLHYFSKGNGENSYGGNGDMTYARLGFKGETQINSDLTGYGQWEYNFQGNNSEGADAQTGNKTRHAFAGLKYADVGSFDYGRNHGVVYDALGYTDMLPEFGGDTAYSDDFFVGHVGGVATYRNSNFFGLVDGLNFAVQYLGKNERDTARRSNGDGVGGSISYEYEGFGIVGAYGAADRTNLQEAQPLGNGKKAEQWATGLKYDANNIYLAANYGETRNATPITNKFTNTSGFANKTQDVLLVAQYQFDFGLRPSIAYTKSKAKDVEGIGDVDLVNYFEVGATYYFNKNMSTYVDYIINQIDSDNKLGVGSDDTVAVGIVYQF
notes: outer membrane protein F (OmpF), UniProt P02931, expressed without the native 22-residue signal peptide; His-tag and thrombin site were deleted from the plasmid; Crystallised with 1.2 equiv. of Zn ion per protomer; also called R132H/Y102H/L83H; source: E. coli BL21(DE3)
Regarding B2, the “stoichiometry N” value in data set [2] came out at 3.

By Km is commonly meant the concentration of substrate that gives half-maximal velocity. In general, kcat refers to the number of substrate molecules converted per active site and unit of time at saturation. One may read the stoichiometry N as the number of molecules, sites or subunits per partner or assembly.
